{
  "source": "paper PMC3877065",
  "about": "“Ligand Recognition by the TPR Domain of the Import Factor Toc64 from Arabidopsis thaliana” (PLoS ONE, 2013)",
  "parents": {"B1": {"name": "C-terminal octapeptide of Hsp70 (GPTIEEVD) [not stated] / TPR domain of AtToc64 with a C-terminal hexa-histidine tag (AtToc64_TPR-H6) [Arabidopsis thaliana] (parent complex)", "chain 1": "GPTIEEVD", "chain 2": "AEIAKEKGNQAFKEKLWQKAIGLYSEAIKLSDNNATYYSNRAAAYLELGGFLQAEEDCTKAITLDKKNVKAYLRRGTAREMLGDCKGAIEDFRYALVLEPNNKRASLSAERLRKFQ"}, "B2": {"name": "C-terminal octapeptide of Hsp90 (TSRMEEVD) [not stated] / TPR domain of AtToc64 with a C-terminal hexa-histidine tag (AtToc64_TPR-H6) [Arabidopsis thaliana] (parent complex)", "chain 1": "TSRMEEVD", "chain 2": "B1 chain 2"}},
  "data": [
    {"variants_of": "B1", "experiment": "ITC; parent: 2.3e+05 nM", "units": {"Kd": "µM"}, "values": [
      {"variant": "chain 1 GPTAEEVD", "note": "[chain 1 I4A]", "Kd": 4600}
    ]},
    {"variants_of": "B2", "experiment": "ITC; parent: 2.18e+05 nM", "units": {"Kd": "µM"}, "values": [
      {"variant": "chain 1 TSRMEAVD", "note": "[chain 1 E6A]", "Kd": 1900},
      {"variant": "chain 1 TSRAEEVD", "note": "[chain 1 M4A]", "Kd": 1080},
      {"variant": "chain 1 TSRMEEVA", "note": "[chain 1 D8A]", "Kd": 1400}
    ]}
  ]
}
